# Measured values reported in patent US8420776 (US Dept. of Health and Human Services, dated 2013).
# B1: endogenous Ube2G2 of HEK 293T cells (enzyme)
# chain: AGTALKRLMAEYKQLTLNPPEGIVAGPMNEENFFEWEALIMGPEDTCFEFGVFPAILSFPLDYPLSPPKMRFTCEMFHPNIYPDGRVCISILHAPGDDPMGYESSAERWSPVQSVEKILLSVVSMLAEPNDESGANVDASKMWRDDREQFYKIAKQIVQKSLGL
# notes: Endogenous protein in cell lysate, detected with rabbit antiserum to residues 148-165; also called endogenous E2
# B2: Myc-Ube2G2, co-expressed in HEK 293T cells (enzyme, not shown: small tags and cut ends)
# chain: MAGTALKRLMAEYKQLTLNPPEGIVAGPMNEENFFEWEALIMGPEDTCFEFGVFPAILSFPLDYPLSPPKMRFTCEMFHPNIYPDGRVCISILHAPGDDPMGYESSAERWSPVQSVEKILLSVVSMLAEPNDESGANVDASKMWRDDREQFYKIAKQIVQKSLGL
# notes: Plasmid described in Tiwari and Weissman, 2001; also called Myc-MmUbc7; myc-tagged MmUbc7/Ube2G2
# B3: GST fusion of the cytoplasmic domain of yeast Cue1p (Cue1p 24-203) (other, UniProt P38428 24-203, looked up)
# chain: QSNQHPSAQRLSATGVNAHGRPQGSTQNALRRTGRVNGGHPVTTQMVETVQNLAPNLHPEQIRYSLENTGSVEETVERYLRGDEFSFPPGFEPSRAPMGANAAVDNNAAGGGEFNDPRKKNMICAENLLDKFHVDLNEDMSNLSFKDLDIEERKRLLVWQARKNLETKLQSDKDLQSLLT
# notes: range 24-203; also called GST-Cue1p 24-203; not shown: glutathione S-transferase (GST) fusion partner, N-terminal (pGEX4T-1)
# How the values were obtained:
# [1] = biological target: N-terminal GFP fusion of gp78 residues 574-611 with the E2-m2 mutation (GFP-574-611E2-m2) (human, UniProt P42212 1-238 = GFP); assay: anti-GFP immunoprecipitation from HEK 293T cells, immunoblot for endogenous Ube2G2
# [2] = biological target: T1, N-terminal GFP fusion of gp78 residues 574-611 (GFP-574-611) (human, UniProt P42212 1-238 = GFP); assay: co-immunoprecipitation with GFP fusion from HEK 293T cells
# T1 construct: the vector encodes the enhanced variant; also called G2BD
# [3] = biological target: T2, gp78 truncated after amino acid 595 of SEQ ID NO:2 (gp78595) (human, UniProt Q9UKV5 1-595); assay: anti-Myc immunoprecipitation from co-transfected cells, anti-gp78 immunoblot
# T2 construct: C-terminal truncation after the indicated amino acid
# [4] = biological target: T3, gp78 truncated after residue 611 of SEQ ID NO:2 (gp78611) (human, UniProt Q9UKV5 1-611); assay: as above
# T3 construct: C-terminal truncation after the indicated amino acid
# [5] = biological target: T4, gp78 truncated after amino acid 576 of SEQ ID NO:2 (gp78576) (human, UniProt Q9UKV5 1-576); assay: as above
# T4 construct: C-terminal truncation after the indicated amino acid
# [6] = biological target: N-terminal GFP fusion of gp78 amino acids 579-600 of SEQ ID NO:2 (human, UniProt P42212 1-238 = GFP); assay: anti-Myc immunoprecipitation from cells co-transfected with GFP fusion and Myc-Ube2G2, anti-GFP immunoblot
# [7] = biological target: T5, lysine 48-linked (K48) tetra-ubiquitin (UniProt P0CG48 1-76, four ubiquitins joined by lysine 48 isopeptide links); assay: GST pull-down, anti-ubiquitin immunoblot
# T5 construct: the monomer is its first 76 residues
# [8] = biological target: T6, Ube2G2/MmUbc7, in vitro translated and labelled with 35S-methionine (human (100% identical to mouse MmUbc7), UniProt P60604 1-165, 35S-methionine label); assay: GST pull-down, E2 translated in wheat germ and labelled with 35S-Met, equal counts
# T6 construct: Translated in wheat germ or rabbit reticulocyte lysate; also called in vitro translated Ube2G2
# T6 sequence: B2 chain
# [9] = biological target: T7, yeast Ubc7p, in vitro translated and labelled with 35S-methionine (yeast, UniProt Q02159 1-165, 35S-methionine label); assay: as above
# T7 sequence (looked up): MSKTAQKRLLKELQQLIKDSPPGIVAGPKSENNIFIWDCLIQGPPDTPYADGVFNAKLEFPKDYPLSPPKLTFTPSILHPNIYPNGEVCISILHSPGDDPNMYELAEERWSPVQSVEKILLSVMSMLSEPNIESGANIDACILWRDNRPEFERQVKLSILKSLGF
# [10] = biological target: UbcH5B, in vitro translated and labelled with 35S-methionine (human, UniProt P62837 1-147); assay: GST pull-down, E2 in vitro translated in wheat germ
binder,measurement,setting,value
B1,binding result,[1],no binding
same,binding result,[2],binds
B2,binding result,[3],no binding
same,binding result,[4],binds
same,binding result,[5],no binding
same,binding result,[6],binds
B3,binding result,[7],no binding (tested: 1 ug K48 tetra-ubiquitin)
same,amount bound (% of input),[8],~10 % of input
same,amount bound (% of input),[9],~10 % of input
same,binding result,[10],no binding
